Reference: the supplement of paper PMC9732359
± gives the uncertainty stated by the source.

Test: protein stability index of a GFP-peptide fusion (yeast GPS) (PSI 1-4); higher = more stable; sorted into four equal gates, so the index is relative within each strain
Summary of the method: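 The protein stability index of a peptide was calculated by multiplying its read frequency in each gate by that gate's number and adding the products. The peptides were tiled 17-residue stretches of yeast proteins, fused downstream of GFP on a Cherry-expressing plasmid and carried in yeast as a pooled library. Mid-log cultures in leucine-free medium were sorted into four equal gates by GFP/Cherry ratio, and each gate's plasmids were PCR-amplified and Illumina-sequenced.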

Sequence | protein stability index (doa10∆) | protein stability index (pdr5∆) | protein stability index (san1∆) | protein stability index (ubr1∆)
NFALTTLIDLVKHSPGA [ECM29] | 1.61 ± 0.11 | 1.79 ± 0.071 | 1.49 ± 0.15 | 2.13 ± 0.062
ICYNKKTEYVLNDLNHL [REC8] | 1.8 ± 0.19 | 1.75 ± 0.091 | 1.68 ± 0.21 | 1.88 ± 0.19
FYMLNAGIRPKFILALN [RPN1] | 2.22 ± 0.16 | 1.81 ± 0.078 | 1.78 ± 0.085 | 1.37 ± 0.058
SGSQNISEFDSFTDILK [RPN12] | 3.37 ± 0.17 | 3.12 ± 0.09 | 3 ± 0.099 | 3.03 ± 0.066
EARFDVLITSYEMVIRE [ISW2] | 1.87 ± 0.094 | 1.49 ± 0.089 | 1.88 ± 0.11 | 2.02 ± 0.11
QNSSKIVNVLSKCLNLI [SWI3] | 2.21 ± 0.057 | 1.98 ± 0.048 | 1.96 ± 0.093 | 1.31 ± 0.044
SHDASRSLASFEQTAFS [SIR4] | 2.86 ± 0.065 | 2.67 ± 0.049 | 2.81 ± 0.053 | 2.67 ± 0.067
HSLSQAIKWDGSSGGVI [PRE3] | 3.69 ± 0.28 | 3.27 ± 0.21 | 2.67 ± 0.21 | –
VNDEEEHKQLVAEIVQN [RPC82] | 2.64 ± 0.12 | 2.54 ± 0.19 | 2.56 ± 0.14 | 1.66 ± 0.098
NVVEADLKRFVDESLLS [QCR2] | 3.14 ± 0.1 | 3.43 ± 0.1 | 3.26 ± 0.055 | 3.46 ± 0.051
AKITEIGSTSKRPIESG [YIL149C/MLP2] | 3.23 ± 0.084 | 3.07 ± 0.1 | 3.14 ± 0.11 | 3.31 ± 0.059
IPNQEVLQYSDWESDLH [YDL116W/NUP84] | 2.1 ± 0.056 | 2 ± 0.056 | 2.43 ± 0.043 | 2.18 ± 0.057
NNSSSGMNNASAGLFGS [YGL172W/NUP49] | 3.18 ± 0.084 | 3.08 ± 0.051 | 3.29 ± 0.036 | 3.35 ± 0.068
VDYGGAEWSLVRIYSGL [SNU114] | – | – | – | 3.66 ± 0.18
MYPSPTGVMIGIDLAYN [PRP8] | 2.11 ± 0.074 | 2.1 ± 0.07 | 1.97 ± 0.081 | 2.07 ± 0.048
CEINYYEILLKILITYG [SRB8] | 1.2 ± 0.047 | 1.54 ± 0.065 | 1.17 ± 0.1 | 1.2 ± 0.076
VNDNPDIEAGDDDDNNE [DIS3] | 3.46 ± 0.19 | 3.47 ± 0.14 | 2.73 ± 0.22 | 3.33 ± 0.089
ISDIPYVISLSYTDAQD [YMR129W/POM152] | 2.16 ± 0.066 | 2.41 ± 0.068 | 2.5 ± 0.061 | 2.64 ± 0.06
YKPLIEERMGQIENLNE [SMC4] | 3.2 ± 0.23 | 3.34 ± 0.098 | 3.46 ± 0.071 | 3.28 ± 0.068
LALGSHNKLIQFGNACI [SSN2] | 2.13 ± 0.13 | 1.6 ± 0.087 | 2.2 ± 0.13 | 1.28 ± 0.089
EREEAEKKRAEQENMRK [MED2] | – | – | 2.75 ± 0.28 | –
TGSDREVQRILIELLTQ [RPT3] | 3.02 ± 0.14 | – | – | 3.5 ± 0.23
IECFKPGDIVRAQVLSL [CSL4] | 2.25 ± 0.15 | 2.04 ± 0.17 | 2.04 ± 0.2 | 2.39 ± 0.16
EDEDDDDDDDEDEEEEE [QCR6] | 3.06 ± 0.049 | 3.5 ± 0.12 | 3.4 ± 0.041 | 3.84 ± 0.17
FNTNFDDEFGDLDAVFF [SNF6] | 3 ± 0.076 | 2.96 ± 0.059 | 2.77 ± 0.054 | 3.01 ± 0.035
LLIIRSLKNTDALLNST [YJL039C/NUP192] | 2.97 ± 0.086 | 3 ± 0.096 | 2.37 ± 0.14 | 2.45 ± 0.15
RRSKQLINLAKTRVGSV [RPC82] | 3.25 ± 0.053 | 2.91 ± 0.062 | 2.95 ± 0.049 | 3.25 ± 0.044

Sequence | protein stability index (doa10∆) | protein stability index (pdr5∆) | protein stability index (san1∆) | protein stability index (ubr1∆)
YKVDNMTRILPQQSRYI [RPN2] | 2.29 ± 0.077 | 3.03 ± 0.12 | 2.5 ± 0.1 | 2.56 ± 0.099
VFSESCSNESFASIPVS [SNU114] | 2.98 ± 0.061 | 3.29 ± 0.068 | 2.88 ± 0.062 | 3.12 ± 0.044
KENEESLTPTQSDSAKV [PRP28] | 3.13 ± 0.088 | 3.35 ± 0.063 | 2.9 ± 0.095 | 3.11 ± 0.053
NSKNDSANVELFKRDCN [YCS4] | 2.75 ± 0.071 | 3.05 ± 0.089 | 3.25 ± 0.12 | 3.17 ± 0.07
MALKFVSIKFTNAAFPF [ECM29] | 2.09 ± 0.058 | 1.98 ± 0.058 | 1.76 ± 0.078 | 1.82 ± 0.071
MEMIENRTMDGKPVSLP [FAS1] | 3.38 ± 0.15 | 3.24 ± 0.22 | 2.75 ± 0.16 | 3.39 ± 0.096
TKEKVNGASVPINLHPS [RPL26A] | 2.54 ± 0.067 | 2.73 ± 0.078 | 2.92 ± 0.07 | 2.93 ± 0.064
AHAQHQPSQQPQQAQQQ [GAL11] | 2.92 ± 0.041 | 3.03 ± 0.037 | 3 ± 0.032 | 2.98 ± 0.031
ELNYFVGCKNLERLTLV [GRR1] | 2.92 ± 0.11 | 2.83 ± 0.093 | 2.19 ± 0.094 | 3.05 ± 0.081
WRKDAQGNYPTTSYIKE [DPB4] | 2.94 ± 0.092 | 2.88 ± 0.069 | 2.92 ± 0.069 | 2.56 ± 0.064
SIDCLLILILVISFGQP [SWI1] | 1.85 ± 0.043 | 1.64 ± 0.034 | 1.52 ± 0.071 | 1.59 ± 0.029
VRLLCRSDGMGNVLLNA [YLR335W/NUP2] | 1.94 ± 0.17 | 2.41 ± 0.13 | 2.02 ± 0.18 | 2.53 ± 0.12
EVYNVIASDGSYVNYRH [RPO21] | 3.41 ± 0.11 | 3.58 ± 0.085 | 2.88 ± 0.12 | 3.08 ± 0.091
LEQLAQHTTESDNISRK [RPB2] | 3.33 ± 0.12 | 3.35 ± 0.12 | 3.01 ± 0.076 | 3.11 ± 0.13
VKDLGQGLKLAKKHKLN [SMC3] | 3.12 ± 0.11 | 2.92 ± 0.13 | 2.83 ± 0.097 | 2.81 ± 0.068
ISFAAFILADAGLEITS [RPP1B] | 1.98 ± 0.063 | 1.8 ± 0.055 | 2.03 ± 0.23 | 1.9 ± 0.076
FVPNDGCLNFVDENDEV [RPS23A] | 2.94 ± 0.063 | 3.04 ± 0.071 | 2.78 ± 0.05 | 2.65 ± 0.055
INYHQYISKAQNDQWSI [SSN2] | 2.63 ± 0.058 | 2.83 ± 0.053 | 2.56 ± 0.051 | 2.73 ± 0.056
ELQKLVHDLNKYKSNTN [SMC2] | 3.15 ± 0.072 | 3.31 ± 0.071 | 3.41 ± 0.047 | 3.32 ± 0.06
TADKIRIHAKNFEAALF [GAL11] | 2.13 ± 0.068 | 2.05 ± 0.065 | 1.51 ± 0.11 | 2.29 ± 0.055
PRLGSIDRNLKCQTCQE [RPO21] | 2.01 ± 0.099 | 1.7 ± 0.056 | 2.18 ± 0.12 | 2.67 ± 0.069
QGIVRVYSKQATFLLTD [MCD1] | 1.97 ± 0.038 | 2.29 ± 0.047 | 2.35 ± 0.049 | 2.03 ± 0.037
SVVAKQLLNGQKIVVVR [RPL16A] | 1.25 ± 0.049 | 1.36 ± 0.053 | 1.62 ± 0.11 | 1.24 ± 0.057
IFERMIEKCLKASELKL [RPN2] | 2.17 ± 0.15 | 2.21 ± 0.099 | – | 1.85 ± 0.079
CSHCGCVYVPNFNASLQ [SNM1] | 3.36 ± 0.11 | 2.42 ± 0.11 | 3.13 ± 0.16 | 1.51 ± 0.1
GNIFADLLPNSFAKLVP [SMC2] | 2.36 ± 0.045 | 2.86 ± 0.04 | 2.58 ± 0.05 | 2.62 ± 0.043
PAKIVNFEKPKNSSQLL [RPN5] | 3.06 ± 0.075 | 3.2 ± 0.068 | 3.21 ± 0.052 | 3.2 ± 0.06

Sequence | protein stability index (doa10∆) | protein stability index (pdr5∆) | protein stability index (san1∆) | protein stability index (ubr1∆)
VMYNGHTGKKLMAQIFF [RPB2] | – | 2.31 ± 0.16 | 3.08 ± 0.14 | 1.27 ± 0.045
LDGELDFDDFLKLGLVE [RET1] | 3.36 ± 0.16 | 3.08 ± 0.12 | 2.81 ± 0.13 | 2.56 ± 0.17
ILEDYCYFRDFEYCRID [ISW2] | 2.56 ± 0.13 | 1.35 ± 0.077 | 1.4 ± 0.11 | 1.35 ± 0.038
KRAEKKAKERLQALKAN [SNF2] | 2.72 ± 0.12 | 2.6 ± 0.15 | 1.73 ± 0.12 | 1.3 ± 0.048
ANVLDPSLRKLIESGIG [BRR2] | 1.87 ± 0.064 | 2.38 ± 0.071 | 2.47 ± 0.095 | 2.56 ± 0.045
AGDWKYDRQLSSLFLDG [FAS2] | 2.16 ± 0.057 | 2.81 ± 0.065 | 2.34 ± 0.11 | 2.23 ± 0.056
EKSRISERDSKDRYING [YMR129W/POM152] | 3.01 ± 0.09 | 3.08 ± 0.062 | 3.04 ± 0.066 | 2.54 ± 0.05
HVLVGDLIKFSAETLSE [FAS1] | 2.38 ± 0.1 | 2.78 ± 0.1 | 2.67 ± 0.1 | 2.79 ± 0.089
KVDIFEIPETGEYSVKL [FAS2] | 3.17 ± 0.093 | 3.37 ± 0.08 | 3.27 ± 0.046 | 2.99 ± 0.049
EYQSLMSLKDKLLIQID [SMC1] | 2.13 ± 0.077 | 2.62 ± 0.082 | 2.41 ± 0.2 | 2.38 ± 0.092
PTATPSPFRPLEKTSRI [YMR153W/NUP53] | 2.89 ± 0.1 | 2.51 ± 0.058 | 2.57 ± 0.11 | 2.81 ± 0.054
EEKPDVTYSDVGGCKDQ [RPT1] | 3.48 ± 0.16 | 3.65 ± 0.19 | 3.04 ± 0.23 | 3.41 ± 0.11
RARLKGKEGRIRGNLMG [RPO21] | 3.37 ± 0.097 | 3.19 ± 0.12 | 3.32 ± 0.088 | 2.96 ± 0.081
NFETEWNLQTLAADDAF [RPB11] | 2.68 ± 0.16 | 2.83 ± 0.13 | – | 2.54 ± 0.13
KYVHVSEVGNCSGSGMG [FAS2] | 2.88 ± 0.055 | 3.08 ± 0.058 | 2.92 ± 0.051 | 2.92 ± 0.041
LGLCCLLDVKLAIDNMY [YCG1] | 1.52 ± 0.045 | 1.51 ± 0.04 | 1.78 ± 0.067 | 1.88 ± 0.044
TPATIVKKPTFTFGQST [YOR098C/NUP1] | 2.84 ± 0.066 | 3.13 ± 0.074 | 3.09 ± 0.058 | 3.43 ± 0.075
LIELSGGQRSLIALSLI [SMC2] | 2.42 ± 0.078 | 2.29 ± 0.09 | 1.86 ± 0.1 | 2.27 ± 0.035
TTVSNDLENSPLKTELE [SSN2] | 3.05 ± 0.13 | 3.16 ± 0.096 | 3.16 ± 0.072 | 3.19 ± 0.082
GSGQPDNDTVVTNDDKS [SRB8] | 3.08 ± 0.23 | 3.29 ± 0.17 | 2.52 ± 0.15 | –
VVDFKNKENDNVPSTKF [SNF12] | 3.6 ± 0.19 | 3.23 ± 0.25 | 3.04 ± 0.14 | –
VSDSEIIDLNLHSFTKQ [POP6] | 2.72 ± 0.061 | 2.85 ± 0.062 | 2.41 ± 0.061 | 2.73 ± 0.044
TVQYVRFFWKRSTNKKS [UBP6] | 1.65 ± 0.054 | 1.35 ± 0.047 | 1.2 ± 0.15 | 1.12 ± 0.04
PHATATEKEPVPAVVDD [SNF6] | 3.24 ± 0.11 | 3.08 ± 0.068 | 2.82 ± 0.14 | 3.18 ± 0.087
FSEGTSADREIQRTLME [RPT4] | 3.41 ± 0.14 | 3.46 ± 0.084 | 3.29 ± 0.091 | 3.1 ± 0.087
